Here are results for 94 variants from the supplement of paper PMC10567573.

B1: C8orf76 (parent)
chain: LYLQLAICSSLQNLEKTIFCLQKL
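Note: lentivirally expressed fusions sorted by FACS into six bins by GFP to DsRed ratio, PSI derived from sequencing read proportions per bin multiplied by bin number.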

The data set covers variants of B1. In words: protein stability index of a GFP-peptide fusion (GPS, HEK-293T) (PSI 1-6); higher = more stable. As to conditions: c terminus: a fixed tail appended.
LYLQLAICSSLWNLEKTIFCLQKL [Q12W]: the protein stability index came out at 3.78.

As for LYLQLAICSSLKNLEKTIFCLQKL [Q12K], the protein stability index was 3.08.

On to LYLQLAICSSLMNLEKTIFCLQKL [Q12M], for which the protein stability index came out at 3.9.

Regarding LYLQLAICSSLFNLEKTIFCLQKL [Q12F], the protein stability index worked out at 2.75.

Take LYLQLAICSSLENLEKTIFCLQKL [Q12E]: the protein stability index was found to be 2.29.

Regarding LYLQLAICSSLGNLEKTIFCLQKL [Q12G], the protein stability index turned out to be 2.58.

Consider LYLQLAICSSLANLEKTIFCLQKL [Q12A], for which the protein stability index came out at 2.38.

With LYLQLAICSSLHNLEKTIFCLQKL [Q12H], the protein stability index was determined as 3.42.

For the variant LYLQLAICSSLQNLFKTIFCLQKL [E15F], the protein stability index came out at 4.35.

For the variant LYLQLAICSSLQNLPKTIFCLQKL [E15P], the protein stability index was found to be 3.75.

With LYLQLAICSSLQNLIKTIFCLQKL [E15I], the protein stability index was found to be 2.49.

In the case of LYLQLAICSSLQNLQKTIFCLQKL [E15Q], the protein stability index was determined as 3.27.

In the case of LYLQLAICSSLQNLWKTIFCLQKL [E15W], the protein stability index was determined as 3.01.

As to LYLQLAICSSLQNLVKTIFCLQKL [E15V], the protein stability index was determined as 3.25.

On to LYLQLAICSSLQNLGKTIFCLQKL [E15G], for which the protein stability index is 1.69.

Regarding LYLQLAICSSLQNLMKTIFCLQKL [E15M], the protein stability index worked out at 3.11.

LYLQLAICSSLQNLDKTIFCLQKL [E15D]: the protein stability index turned out to be 1.75.

With LYLQLAICSSLQNLTKTIFCLQKL [E15T], the protein stability index came out at 1.99.

As for LYLQLAICSSLQNLLKTIFCLQKL [E15L], the protein stability index was 4.03.

On to LYLQLAICSSLQNLCKTIFCLQKL [E15C], for which the protein stability index turned out to be 2.82.

In the case of LYLQLAICSSLQNLRKTIFCLQKL [E15R], the protein stability index turned out to be 2.63.

Turning to LYLQLNICSSLQNLEKTIFCLQKL [A6N], the protein stability index is 2.71.

On to LYLQLTICSSLQNLEKTIFCLQKL [A6T], for which the protein stability index came out at 3.04.

Consider LYLQLWICSSLQNLEKTIFCLQKL [A6W], for which the protein stability index was 1.73.

As to LYLQLYICSSLQNLEKTIFCLQKL [A6Y], the protein stability index turned out to be 2.03.

For LYLQLCICSSLQNLEKTIFCLQKL [A6C], the protein stability index is 2.72.

Regarding LYLQLLICSSLQNLEKTIFCLQKL [A6L], the protein stability index came out at 2.52.

As for LYLQLGICSSLQNLEKTIFCLQKL [A6G], the protein stability index is 1.73.

Regarding LYLQLHICSSLQNLEKTIFCLQKL [A6H], the protein stability index was found to be 4.38.

For the variant LYLQLRICSSLQNLEKTIFCLQKL [A6R], the protein stability index was 3.17.

Take LYLQLQICSSLQNLEKTIFCLQKL [A6Q]: the protein stability index came to 2.63.

For LYLQLIICSSLQNLEKTIFCLQKL [A6I], the protein stability index stood at 2.16.

LYLQLMICSSLQNLEKTIFCLQKL [A6M]: the protein stability index came to 3.66.

Consider LYLQLVICSSLQNLEKTIFCLQKL [A6V], for which the protein stability index is 1.62.

With LYLQLPICSSLQNLEKTIFCLQKL [A6P], the protein stability index is 2.9.

In the case of LYLQLAICSSLQNLETTIFCLQKL [K16T], the protein stability index amounted to 4.26.

With LYLQLAICSSLQNLEPTIFCLQKL [K16P], the protein stability index is 2.32.

Turning to LYLQLAICSSLQNLENTIFCLQKL [K16N], the protein stability index is 2.47.

Regarding LYLQLAICSSLQNLECTIFCLQKL [K16C], the protein stability index worked out at 4.77.

Turning to LYLQLAICSSLQNLEYTIFCLQKL [K16Y], the protein stability index is 2.26.

Take LYLQLAICSSLQNLEQTIFCLQKL [K16Q]: the protein stability index was found to be 3.17.

LYLQLAICSSLQNLEITIFCLQKL [K16I]: the protein stability index turned out to be 2.44.

On to LYLQLAICSSLQNLESTIFCLQKL [K16S], for which the protein stability index turned out to be 2.67.

Turning to LYLQLAIESSLQNLEKTIFCLQKL [C8E], the protein stability index amounted to 3.54.

LYLQLAIISSLQNLEKTIFCLQKL [C8I]: the protein stability index stood at 1.69.

As to LYLQLAIWSSLQNLEKTIFCLQKL [C8W], the protein stability index is 2.12.

On to LYLQLAIRSSLQNLEKTIFCLQKL [C8R], for which the protein stability index amounted to 3.1.

With LYLQLAIMSSLQNLEKTIFCLQKL [C8M], the protein stability index stood at 4.39.

As for LYLQLAISSSLQNLEKTIFCLQKL [C8S], the protein stability index came out at 3.03.

Regarding LYLQLAIGSSLQNLEKTIFCLQKL [C8G], the protein stability index worked out at 3.48.

Consider LYLQLAINSSLQNLEKTIFCLQKL [C8N], for which the protein stability index was determined as 3.14.

Regarding LYLQLAIYSSLQNLEKTIFCLQKL [C8Y], the protein stability index is 2.62.

As for LYLQLAIHSSLQNLEKTIFCLQKL [C8H], the protein stability index stood at 2.52.

With LYLQLAIVSSLQNLEKTIFCLQKL [C8V], the protein stability index turned out to be 3.6.

Take LYLQLAIFSSLQNLEKTIFCLQKL [C8F]: the protein stability index was found to be 1.94.

As for LYLQLAILSSLQNLEKTIFCLQKL [C8L], the protein stability index worked out at 2.92.

Consider LYLQLAITSSLQNLEKTIFCLQKL [C8T], for which the protein stability index worked out at 2.71.

For the variant LYLQLAIPSSLQNLEKTIFCLQKL [C8P], the protein stability index was found to be 2.57.

As for LYLQLAICSSLQNLEKTFFCLQKL [I18F], the protein stability index was determined as 2.57.

LYLQLAICSSLQNLEKTLFCLQKL [I18L]: the protein stability index turned out to be 2.46.

As for LYLQLAICSSLQNLEKTQFCLQKL [I18Q], the protein stability index is 2.44.

For LYLQLAICSSLQNLEKTPFCLQKL [I18P], the protein stability index is 4.2.

Turning to LYLQLAICSSLQNLEKTYFCLQKL [I18Y], the protein stability index was determined as 2.94.

Regarding LYLQLAICSSLQNLEKTKFCLQKL [I18K], the protein stability index is 2.22.

Regarding LYLQLAICSSLQNLEKTHFCLQKL [I18H], the protein stability index worked out at 2.6.

In the case of LYLQLAICSSLQNLEKTNFCLQKL [I18N], the protein stability index stood at 5.27.

Turning to LYLQLAICSSLQNLEKTRFCLQKL [I18R], the protein stability index amounted to 2.41.

With LYLQLAICSSLQNLEKTEFCLQKL [I18E], the protein stability index was 1.79.

As for LYLQLAICSSLQNLEKTWFCLQKL [I18W], the protein stability index is 3.03.

LYLQLAICSSLQNLEKTMFCLQKL [I18M]: the protein stability index worked out at 1.11.

As to LYLQLAICSSLQNLEKTIFCGQKL [L21G], the protein stability index stood at 3.2.

For LYLQLAICSSLQNLEKTIFCFQKL [L21F], the protein stability index was 3.62.

Turning to LYLQLAICSSLQNLEKTIFCDQKL [L21D], the protein stability index turned out to be 2.09.

Turning to LYLQLAICSSLQNLEKTIFCAQKL [L21A], the protein stability index is 2.77.

Regarding LYLQLAICSSLQNLEKTIFCCQKL [L21C], the protein stability index was found to be 2.88.

Turning to LYLQLAICSSLQNLEKTIFCEQKL [L21E], the protein stability index is 1.42.

For LYLQLAYCSSLQNLEKTIFCLQKL [I7Y], the protein stability index is 3.21.

Regarding LYLQLATCSSLQNLEKTIFCLQKL [I7T], the protein stability index was 2.36.

In the case of LYLQLAGCSSLQNLEKTIFCLQKL [I7G], the protein stability index amounted to 3.86.

As to LYLQLASCSSLQNLEKTIFCLQKL [I7S], the protein stability index is 1.26.

On to LYLQLAMCSSLQNLEKTIFCLQKL [I7M], for which the protein stability index came to 2.24.

With LYLQLANCSSLQNLEKTIFCLQKL [I7N], the protein stability index was 2.23.

As for LYLQLAHCSSLQNLEKTIFCLQKL [I7H], the protein stability index worked out at 2.71.

Turning to LYLQLAICSSQQNLEKTIFCLQKL [L11Q], the protein stability index amounted to 2.35.

On to LYLQLAICSSIQNLEKTIFCLQKL [L11I], for which the protein stability index stood at 2.28.

For LYLQLAICSSTQNLEKTIFCLQKL [L11T], the protein stability index amounted to 1.82.

Turning to LYLQLAICSSKQNLEKTIFCLQKL [L11K], the protein stability index is 3.11.

For the variant LYLQLAICSSFQNLEKTIFCLQKL [L11F], the protein stability index came out at 1.39.

For the variant LYLQLAICSSPQNLEKTIFCLQKL [L11P], the protein stability index is 5.02.

Regarding LYLQLAICSSCQNLEKTIFCLQKL [L11C], the protein stability index stood at 1.8.

Consider LYLQLAICSSDQNLEKTIFCLQKL [L11D], for which the protein stability index amounted to 2.17.

In the case of LYLQLAICSSEQNLEKTIFCLQKL [L11E], the protein stability index is 4.55.

With LYLQLAICSSMQNLEKTIFCLQKL [L11M], the protein stability index came out at 3.61.

As to LYLQLAICSSWQNLEKTIFCLQKL [L11W], the protein stability index stood at 1.77.
